This is an account of results in US20130289253A1.

The target of assay [1] is HA peptide-stimulated PBMC (antigen-specific CD4+ T cells). In words: flow cytometry, staining at 4°C 1 h, 28 µg/ml; 1 min, no imidazole. Background: A flow cytometer gives signals particle by particle.
The target is the same in assay [2]. The assay is described as follows: flow cytometry, staining at 4°C 1 h, 28 µg/ml; 3 min, no imidazole.
The target is the same in assay [3]. The assay is described as follows: flow cytometry, RT, 7 µg/ml; HA306-318 stim.
The target in assay [4] is control (Fig. 48). The assay is described as follows: flow cytometry, RT; control; conventional BSP multimer, concentration not given.
Assay [5] concerns the target HA peptide-stimulated PBMC (antigen-specific CD4+ T cells). The assay is described as follows: flow cytometry, staining at 4°C 1 h, 28 µg/ml; 10 min, no imidazole.
For assay [6] the target is unchanged. The assay is described as follows: flow cytometry, 4 °C; HA306-318 stim.
The target is the same in assay [7]. In words: flow cytometry, 37 °C 1 h, 10 µg/ml; HA306-318 stim.
The target is the same in assay [8]. In words: flow cytometry, staining at 4°C 1 h, 28 µg/ml; 0 min, no imidazole.
Assay [9] concerns the target control (Fig. 48). The assay is described as follows: flow cytometry, RT, 7 µg/ml; control.
For assay [10], the target named is HA peptide-stimulated PBMC (antigen-specific CD4+ T cells).
Assay [11] shares this target. The assay is described as follows: flow cytometry, staining at 4°C 1 h, 28 µg/ml; 5 min, no imidazole.
Assay [12] has as its target control (Fig. 48). In words: flow cytometry, 4 °C; control.
Assay [13] concerns the target HA peptide-stimulated PBMC (antigen-specific CD4+ T cells). The source holds these as a separate data set.
Assay [14] concerns the target control (Fig. 48).
Assay [15] deals with HA peptide-stimulated PBMC (antigen-specific CD4+ T cells). The assay is described as follows: flow cytometry, RT, 1.75 µg/ml; HA306-318 stim.
The target is the same in assay [16]. This is another data set of the same source.
The target is the same in assay [17]. The assay is described as follows: flow cytometry, RT 1 h, 10 µg/ml; HA306-318 stim.
Assay [18] has the same target. In words: flow cytometry, RT, 3.5 µg/ml; HA306-318 stim.
Assay [19] has as its target control (Fig. 48). In words: flow cytometry, RT, 1.75 µg/ml; control.
The target in assay [20] is control (Fig. 48). In words: flow cytometry, RT, 3.5 µg/ml; control.

“And” between values parts separate entries of the source, which are not always exact repeats. Equal entries are not always repeated. Where two headings read alike, the source gives them in different places.

“DR4 2×His DTB-HA306-318 complexes (DTB-streptactin purified monomers) (from UniProt P01903 26-216) (peptide-MHC)”: the % of cells in Q2 (multimer+ CD4+) was 5.3% in assay [1]; 4.68% in [2]; 6.15% in assay [3]; 0.121% in assay [4]; 4.35% in [5]; 2.52% and 2.3% in assay [6]. Also, the % of cells in Q2 (multimer+ CD4+) in assay [7] is 6.23%; in [8] it was 4.5%; in [9] it was 0.11%; in assay [10], 12.3%; in [11], 4.59%; in assay [12], 0.355% and 0.561%. Moreover, the % of cells in Q2 (multimer+ CD4+) in assay [13] was 24.9% and 9.81%; in assay [14], 0.384% and 0.618%; in assay [15], 7.23%; in [16] it was 4.52%; in assay [17], 5.35% and 3.3%; in assay [18] it was 7.94%. For the same substance, the % of cells in Q2 (multimer+ CD4+) in [19] was found to be 0.142%; in assay [20], 0.222%.
